The text below walks through data of patent publication US20120301394A1 (published 2012).

The target in assay [1] is T1, Recombinant mouse MMR (R&D systems) (mouse, UniProt Q61830 20-1388).
T1 construct: Bought recombinant extracellular portion of mouse MMR with a C-terminal His tag; It was immobilized on the CM5 chip for SPR and coated on plates for PE-ELISA; The SPR methods say only 'MMR'; also called mMMR; recombinant MMR
T1 sequence: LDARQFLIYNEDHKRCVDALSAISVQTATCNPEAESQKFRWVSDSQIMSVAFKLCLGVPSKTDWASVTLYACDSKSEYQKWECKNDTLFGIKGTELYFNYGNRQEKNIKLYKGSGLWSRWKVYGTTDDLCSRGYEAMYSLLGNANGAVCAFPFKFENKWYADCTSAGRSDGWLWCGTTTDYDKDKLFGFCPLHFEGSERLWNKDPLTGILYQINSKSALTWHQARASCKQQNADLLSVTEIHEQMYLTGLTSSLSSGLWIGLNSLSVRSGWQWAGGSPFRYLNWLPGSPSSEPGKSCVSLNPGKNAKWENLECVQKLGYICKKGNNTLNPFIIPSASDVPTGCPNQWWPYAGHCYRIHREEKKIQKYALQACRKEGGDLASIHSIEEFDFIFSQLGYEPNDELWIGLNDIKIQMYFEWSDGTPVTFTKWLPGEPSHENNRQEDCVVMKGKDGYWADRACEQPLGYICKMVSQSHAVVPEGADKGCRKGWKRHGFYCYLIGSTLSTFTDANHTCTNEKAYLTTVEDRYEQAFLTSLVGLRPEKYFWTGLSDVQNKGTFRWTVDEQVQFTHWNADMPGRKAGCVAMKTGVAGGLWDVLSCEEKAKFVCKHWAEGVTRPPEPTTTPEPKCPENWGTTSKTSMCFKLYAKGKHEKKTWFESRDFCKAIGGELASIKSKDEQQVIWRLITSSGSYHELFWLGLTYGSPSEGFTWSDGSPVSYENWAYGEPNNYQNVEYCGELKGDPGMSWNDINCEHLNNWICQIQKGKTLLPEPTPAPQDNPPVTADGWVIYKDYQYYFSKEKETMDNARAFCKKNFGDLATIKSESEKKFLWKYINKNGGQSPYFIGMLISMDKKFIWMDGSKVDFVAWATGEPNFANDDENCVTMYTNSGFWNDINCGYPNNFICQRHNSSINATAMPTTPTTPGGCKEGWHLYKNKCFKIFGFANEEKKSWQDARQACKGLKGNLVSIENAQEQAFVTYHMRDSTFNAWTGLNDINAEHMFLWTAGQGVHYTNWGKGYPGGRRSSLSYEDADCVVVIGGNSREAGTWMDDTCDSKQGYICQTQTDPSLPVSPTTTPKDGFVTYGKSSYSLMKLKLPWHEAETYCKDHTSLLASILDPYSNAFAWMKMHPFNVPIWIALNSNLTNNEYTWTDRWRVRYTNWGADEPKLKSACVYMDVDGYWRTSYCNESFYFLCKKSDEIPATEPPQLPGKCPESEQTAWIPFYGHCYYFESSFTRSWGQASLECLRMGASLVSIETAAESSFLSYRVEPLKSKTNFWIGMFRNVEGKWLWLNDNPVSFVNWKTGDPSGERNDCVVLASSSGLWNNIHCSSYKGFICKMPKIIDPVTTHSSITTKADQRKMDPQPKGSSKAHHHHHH
Briefly: listed as a cross-reactive Nb; selection by PE-ELISA on mouse MMR (Example 26). In general terms: An ELISA detects its analyte on a solid surface through an enzyme-linked reagent.

For assay [2], the target named is T2, Recombinant human MMR (R&D systems) (human, UniProt P22897 19-1383).
T2 construct: Bought protein (R&D Systems #2534) coated on ELISA plates; also called hMMR; MRC1
T2 sequence: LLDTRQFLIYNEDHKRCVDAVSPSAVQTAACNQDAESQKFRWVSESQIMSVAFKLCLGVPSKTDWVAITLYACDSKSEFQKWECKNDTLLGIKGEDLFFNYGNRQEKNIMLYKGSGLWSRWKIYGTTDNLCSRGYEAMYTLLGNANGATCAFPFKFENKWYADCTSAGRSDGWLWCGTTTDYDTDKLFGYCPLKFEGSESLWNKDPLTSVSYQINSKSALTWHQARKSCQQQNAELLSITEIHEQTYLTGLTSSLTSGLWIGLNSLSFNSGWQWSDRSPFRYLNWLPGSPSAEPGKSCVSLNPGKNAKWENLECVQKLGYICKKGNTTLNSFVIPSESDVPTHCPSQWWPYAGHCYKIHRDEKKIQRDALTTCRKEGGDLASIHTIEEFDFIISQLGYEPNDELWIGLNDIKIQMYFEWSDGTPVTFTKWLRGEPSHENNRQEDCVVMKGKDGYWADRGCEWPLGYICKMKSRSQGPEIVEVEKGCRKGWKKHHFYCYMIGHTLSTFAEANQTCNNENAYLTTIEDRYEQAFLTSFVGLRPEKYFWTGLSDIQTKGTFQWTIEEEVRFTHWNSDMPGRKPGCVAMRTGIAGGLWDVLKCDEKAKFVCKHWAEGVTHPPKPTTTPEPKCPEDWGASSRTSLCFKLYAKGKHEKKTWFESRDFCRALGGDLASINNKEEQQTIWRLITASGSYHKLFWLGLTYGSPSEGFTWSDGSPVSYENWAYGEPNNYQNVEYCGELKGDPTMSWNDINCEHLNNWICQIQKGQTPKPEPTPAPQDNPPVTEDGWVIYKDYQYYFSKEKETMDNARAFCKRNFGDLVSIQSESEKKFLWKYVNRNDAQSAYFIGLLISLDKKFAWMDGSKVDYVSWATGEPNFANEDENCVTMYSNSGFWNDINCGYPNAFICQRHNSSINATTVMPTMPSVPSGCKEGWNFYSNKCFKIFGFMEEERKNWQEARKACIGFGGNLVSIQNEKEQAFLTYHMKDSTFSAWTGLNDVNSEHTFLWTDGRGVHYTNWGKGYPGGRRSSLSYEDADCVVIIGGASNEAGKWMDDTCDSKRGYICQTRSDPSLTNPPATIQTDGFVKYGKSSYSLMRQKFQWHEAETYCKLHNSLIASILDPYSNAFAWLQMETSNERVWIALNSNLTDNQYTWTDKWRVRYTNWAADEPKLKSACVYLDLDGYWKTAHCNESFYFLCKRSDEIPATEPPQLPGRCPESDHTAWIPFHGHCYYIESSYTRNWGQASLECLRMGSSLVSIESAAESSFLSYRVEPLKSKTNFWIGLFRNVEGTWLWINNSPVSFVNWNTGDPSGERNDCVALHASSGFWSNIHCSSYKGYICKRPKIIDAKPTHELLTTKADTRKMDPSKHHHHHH
Briefly: listed as a cross-reactive Nb; selection by PE-ELISA on human MMR (Example 26).

B1: NbhmMMRm26.70 (VHH)
VHH: QVQLQESGGGLVQPGGSLRLSCTASGFPFSSAPMSWVRQAPGKELEWVSYIGYTGTITDYANSVKGRFTISRDNAKNRLYLQMNSLKPEDTAVYFCAQGYARLIADSDLVRGQGTQVTVSS
With B1, the binding result in assay [1] and in assay [2] was “binds” in each case.
